Measurements published in patent publication US20240124590A1 (ULTRAHUMAN EIGHT, published 2024).
Like-named read-outs stand apart in the source and are kept apart here.

Columns and labels:
[1] = biological target: T1, cynomolgus monkey PD1 human Fc tagged recombinant protein (cynomolgus monkey, UniProt Q15116 25-170 (human entry), limits assumed); experiment: direct ELISA, IgG1null on coated PD1-Fc
T1 construct: also called cyPD1-Fc; cyPD-1-Fc; not shown: human Fc tag
T1 chain: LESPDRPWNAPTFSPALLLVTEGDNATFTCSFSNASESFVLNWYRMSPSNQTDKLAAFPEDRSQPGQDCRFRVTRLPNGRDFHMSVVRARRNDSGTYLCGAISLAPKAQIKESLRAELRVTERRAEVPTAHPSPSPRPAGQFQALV
Experimental: (§1) Binding and cross-reactivity of the lead panel to the recombinant proteins was initially assessed by binding ELISA. The human PD1 human Fc tagged recombinant protein and the cynomolgus monkey PD1 human Fc tagged recombinant protein were coated to the surface of MaxiSorp™ flat-bottom 96 well plate at 1 μg/ml. […] The Fabs were detected using mouse anti-c-myc antibody followed by donkey anti-mouse IgG conjugated to horseradish peroxidase. The IgGs were detected using the mouse anti-human IgG conjugated to horseradish peroxidase. Binding signals were visualized with 3,3′,5,5′-Tetrannethylbenzidine Substrate Solution (TMB) and the absorbance measured at 450 nm.
(§2) The purified IgGs described above were then tested for binding to human and cyno PD1-Fc in direct titration ELISA format. […] As the ELISA EC50 values for directly binding IgGs are strongly influenced by avidity, rather than true 1:1 binding affinity, we then proceeded to perform higher-sensitivity, solution-phase epitope competition and Biacore binding affinity determinations, as outlined below.

[2] = biological target: T2, human PD1 human Fc tagged recombinant protein (human, UniProt Q15116 25-170, limits assumed); experiment: direct ELISA, IgG1null on coated PD1-Fc
T2 construct: also called huPD1-Fc; huPD-1-Fc; not shown: human Fc tag
Experimental: as §1, §2

[3] = biological target: T3, biotinylated human PD1-His/AviTag (human, UniProt Q15116 25-170, limits assumed, biotinylated); experiment: Alphascreen competition vs IgG1-Mab005 (humanized)
T3 construct: Alphascreen antigen; whole entry named; also called biotinylated monomeric human PD1; not shown: His/AviTag
Experimental: The AlphaScreen assay (Perkin Elmer) was performed in a 25 μl final volume in 384-well white microtiter plates (Greiner). The reaction buffer contained 1×PBS pH 7.3 (Oxoid, Cat. nr. BRO014G) and 0.05% (v/v) Tween® 20 (Sigma, Cat. nr. P9416). Purified IgG samples were titrated in three fold serial dilutions starting at 500 nM final concentration and incubated with biotinylated human PD1-His/AviTag at 0.6 nM final concentration for 20 minutes at room temperature. […] Followed by addition of the Streptavidin Donor beads at 20 μg/ml (final concentration) and incubation for 30 minutes at room temperature. The emission of light was measured in the EnVision multilabel plate reader (Perkin Elmer) and analysed using the EnVision manager software. Values were reported as Counts Per Second (CPS) and corrected for crosstalk.

[4] = biological target: T4, cynomolgus monkey PD1 His tag (monomeric) (cynomolgus monkey, UniProt Q15116 25-170 (human entry), limits assumed); experiment: SPR (Biacore); cyno KD against human KD
T4 construct: Soluble monomeric analyte; whole entry named; also called monomeric cyno PD1; not shown: His tag
T4 chain: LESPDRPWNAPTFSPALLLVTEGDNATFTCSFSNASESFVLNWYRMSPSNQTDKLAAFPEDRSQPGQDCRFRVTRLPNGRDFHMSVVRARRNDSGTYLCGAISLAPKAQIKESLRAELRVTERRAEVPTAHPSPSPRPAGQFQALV
Experimental: (§3) Affinity (KD) of purified IgGs was determined via SPR with antigen in-solution on a Biacore 3000 (GE). A mouse anti-human antibody (CH1 specific) was immobilized on a CM5 Sensor Chip to a level of 2000 RU in acetate buffer at pH 4.5 using amine coupling following the Wizard instructions for two channels. One channel was used for background signal correction. The standard running buffer HBS-EP pH 7.4 was used. Regeneration was performed with a single injection of 10 μl of 10 mM Glycine at pH 1.5 at 20 μl/minute. IgG samples were injected for 2 minutes at 50 nM at 30 μl/min followed by and off-rate of 60 seconds. […] The obtained sensorgrams were analysed using the Biacore 3000 evaluation (BIAevaluation) software. The KD was calculated by simultaneous fitting of the association and dissociation phases to a 1:1 Langmuir binding model.
(§4) Biacore analyses of binding affinity was performed for all IgGs to solution-phase, monomeric human and cyno PD1 proteins.

[5] = biological target: T4, cynomolgus monkey PD1 His tag …; experiment: SPR (Biacore), IgG captured, monomeric PD1-His analyte
Experimental: as §3, §4

[6] = biological target: T5, human PD1 His tagged (monomeric) (human, UniProt Q15116 25-170, limits assumed); experiment: as above
T5 construct: Soluble monomeric analyte; whole entry named; also called monomeric human PD1; not shown: His tag
Experimental: as §3, §4

[7] = biological target: T6, human PD1 expressed on cells (human, UniProt Q15116 25-288); experiment: cell-based or functional assay
[8] = biological target: T1, cynomolgus monkey PD1 human Fc tagged …; experiment: direct ELISA, IgG1null on coated PD1-Fc
Experimental: as §1, §2

[9] = biological target: T2, human PD1 human Fc tagged recombinant …; experiment: direct ELISA, IgG1null on coated PD1-Fc; remark: listed apart in the source
Experimental: as §1, §2

[10] = biological target: T7, cyno PD1 expressed on CHO-K1 cells (cynomolgus monkey, UniProt Q15116 25-288 (human entry)); experiment: flow cytometry, PD1 CHO-K1 cells
T7 construct: also called cyno PD1+ CHO cells
T7 chain: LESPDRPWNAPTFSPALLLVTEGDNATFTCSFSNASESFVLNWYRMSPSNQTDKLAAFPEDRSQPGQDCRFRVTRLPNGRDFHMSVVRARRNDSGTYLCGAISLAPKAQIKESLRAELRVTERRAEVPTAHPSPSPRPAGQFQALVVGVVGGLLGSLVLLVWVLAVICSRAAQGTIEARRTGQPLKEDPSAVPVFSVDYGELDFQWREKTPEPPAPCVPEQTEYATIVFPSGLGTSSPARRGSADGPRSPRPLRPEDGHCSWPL
Experimental: (§5) Purified IgGs were tested in FACs for binding to human and cyno PD1 expressed on CHO-K1 stable cell lines and CHO-K1 wild-type cells. […] Binding of IgGs was detected with a mouse anti-human IgG conjugated to FITC. Results were analyzed by examining the Mean Fluorescence Intensity (MFI) of 10000 cells per sample in the BL-1 channel detector of a flow cytometer (Attune™ NxT Acoustic Focusing Cytometer, Invitrogen/ThermoFisher Scientific).
(§6) Antibodies to PD1 were analysed for concentration-dependent binding at the cell surface via flow cytometry. Initial analyses were performed on CHO cells stably-transfected with human or cyno PD1.

[11] = biological target: T6, human PD1 expressed on cells; experiment: flow cytometry, PD1 CHO-K1 cells
Experimental: as §5, §6

T5 sequence (Q15116 25-170 limits assumed): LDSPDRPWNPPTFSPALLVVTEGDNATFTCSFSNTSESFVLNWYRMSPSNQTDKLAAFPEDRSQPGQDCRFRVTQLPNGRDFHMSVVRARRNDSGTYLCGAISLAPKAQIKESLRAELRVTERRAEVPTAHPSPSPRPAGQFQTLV
T6 sequence (Q15116 25-288 limits assumed): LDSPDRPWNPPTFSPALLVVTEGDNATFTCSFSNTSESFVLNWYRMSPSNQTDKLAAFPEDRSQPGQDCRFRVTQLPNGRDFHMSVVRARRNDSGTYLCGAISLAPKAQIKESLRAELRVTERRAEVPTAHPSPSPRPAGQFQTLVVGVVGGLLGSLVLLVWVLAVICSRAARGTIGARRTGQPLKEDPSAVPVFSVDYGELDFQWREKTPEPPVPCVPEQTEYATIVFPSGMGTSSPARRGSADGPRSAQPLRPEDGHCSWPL
T2 sequence (Q15116 25-170 limits assumed): as the sequence (Q15116 25-170 limits assumed) above
T3 sequence (Q15116 25-170 limits assumed): as above

EC50 [1]: 0.152 nM | EC50 [2]: 0.137 nM | IC50 [3]: 2.14 nM | human/cyno affinity differential (fold) [4]: 8 fold | Kd [5]: 32 nM | koff [5]: 0.0028 s⁻¹ | kon [5]: 88000 M⁻¹ s⁻¹ | Kd [6]: 4 nM | koff [6]: 0.00047 s⁻¹ | kon [6]: 120000 M⁻¹ s⁻¹ | EC50 (ng/ml), IgG1null blockade of human PD1/PD-L1 [7]: 285 ng/mL | EC50 [8]: 0.132 nM | EC50 [9]: 0.114 nM | EC50 [10]: 6.53 nM | EC50 [11]: 2.32 nM
B1: IgG1-Mab005 (humanized) (antibody, V domains shown)
VH: EVQLVESGGGLVQPGGSLRLSCAASGFTFSSYMMSWVRQAPGKGLEWVATISGGGANTYYPDSVKGRFTISRDNAKNSLYLQMNSLRAEDTAVYYCARQLYYFDYWGQGTTVTVSS
VL: DIQMTQSPSSLSASVGDRVTITCLASQTIGTWLTWYQQKPGKAPKLLIYTATSLADGVPSRFSGSGSGTDFTLTISSLQPEDFATYYCQQVYSIPWTFGGGTKVEIK
notes: tested as human IgG1null (IgG1 with L234A, L235A, G237A) with human Ckappa; also called Mab005-IgG1 (humanized); Mab005-IgG1 (hum)
